The results in this text go back to patent US20100196395A1 (Boehringer Ingelheim, published 2010).

The target in assay [1] is T1, murine IGF-2 (murine, UniProt P09535 25-91).
T1 construct: bought reagent; also called mouse IGF-2
The experiment in a line: ELISA titration of the IgG1 on coated murine IGF-2, OD 450.

Assay [2] deals with T2, recombinant human IGF-2 (human, UniProt P01344 25-91).
T2 construct: mature; also called insulin-like growth factor-2
The experiment in a line: ELISA titration of the IgG1 on coated human IGF-2, OD 450.

Assay [3] has as its target T3, biotinylated IGF-1 (UniProt P05019 49-118, biotinylated (site not stated)).
T3 construct: also called IGF-1 ligand
Description: competition ELISA: antibody titrated against biotinylated IGF-1 binding to coated IGF-1R; antibody 40183; mass concentration.

The target of assay [4] is T4, rat IGF-1 (rat, UniProt P08025 49-118).
T4 construct: bought reagent
T4 sequence (P08025 49-118 limits assumed): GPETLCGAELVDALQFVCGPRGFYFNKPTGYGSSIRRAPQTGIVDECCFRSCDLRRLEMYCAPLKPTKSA
The experiment in a line: ELISA titration of the IgG1 on coated rat IGF-1, OD 450.

Assay [5] concerns the target T5, rat IGF-2 (rat, UniProt P01346 25-91).
T5 construct: bought reagent
Description: ELISA titration of the IgG1 on coated rat IGF-2, OD 450.

Assay [6] has as its target T3, biotinylated IGF-1. The experiment in a line: competition ELISA: antibody blocks binding of biotinylated IGF-1 to coated IGF-1R, fluorescence readout. The protocol:
To identify IGF antibodies that neutralize the ability of IGF-1 and IGF-2 to bind to the IGF-1R, an ELISA is established by coating plates with 1.5 μg/ml recombinant human IGF-1R (R&D Systems) which allows the binding of biotinylated IGF-1 and biotinylated IGF-2. Bound IGF-1 or IGF-2 is detected using alkaline phosphatase-conjugated streptavidin (1:10,000 dilution) (Roche). […] Antibody Fab fragments that block the binding of biotinylated ligand are identified by a reduction in fluorometric signal.

Assay [7] deals with recombinant human insulin (human, UniProt P01308 25-54; P01308 90-110). Description: ELISA titration of the IgG1 on coated human insulin, OD 450.
Sequence of recombinant human insulin (P01308 25-54 limits assumed, chain 1 of 2): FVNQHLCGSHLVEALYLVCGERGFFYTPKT
Sequence of recombinant human insulin (P01308 90-110 limits assumed, chain 2 of 2): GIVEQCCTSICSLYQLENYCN
The target of assay [8] is T6, murine IGF-1 (murine, UniProt P05017 49-118).
T6 construct: bought reagent; also called mouse IGF-1
Description: ELISA titration of the IgG1 on coated murine IGF-1, OD 450.

In assay [9] the target is T7, recombinant human IGF-1 (human, UniProt P05019 49-118).
T7 construct: mature; also called insulin-like growth factor-1
Description: SPR (Biacore), IGF coating method, bivalent antibody injected (avidity); IGF coated on the chip, bivalent antibody injected (avidity).

Assay [10] deals with T6, murine IGF-1. Description: SPR (Biacore), antibody capture method, IGF antigen injected. The protocol:
(§1) The sensor chip is coated with approximately 1000 RU of the reference antibody in flow cell 1 and approximately 1000 RU of a rabbit-anti-human Fc-gamma-specific antibody in flow cell 2 using the coupling reagents from an amine coupling kit. A target of 1000 RU is set in the surface preparation wizard of the Biacore 3000 software at a flow rate of 5 μl/min. Running buffer used is HBS-EP. […] The IGF antigens are diluted to 500, 250, 125, 62.5 and 31.3 nM in running buffer (HCB) and the different antigen dilutions are run singly over Fc1 and Fc2 with random order. Blank runs using running buffer only are run in-between. A blank run curve is subtracted from each binding curve before affinity analysis. Data evaluation is performed using the BIAevaluation software (version 4.1, Biacore, Freiburg, Germany). The dissociation and association phases of the kinetics are fitted separately. For the separate fit of the kdiss values a time-frame of the initial 200-300 seconds in the dissociation phase is used (range of steady decrease of signal). For the separate fit of the kₐₛₛ values, initial time frames of approx 100 seconds are used (range of steady increase of signal) and for calculation the individual kdiss values are used with the 1:1 Langmuir association model. The average values with the standard deviations of the kinetic data together with the corresponding dissociation (KD) and association (KA) constants are calculated.
(§2) The analysis is initially performed by capturing the IGF antibodies on the sensor chip and injecting a range of antigen concentrations, thereby eliminating the possibility of an avidity effect.

Assay [11] concerns the target T4, rat IGF-1. The assay is described as above. Here is the method:
as §1, §2

For assay [12], the target named is T1, murine IGF-2. Described as above. The protocol: as §1, §2
Assay [13] addresses T5, rat IGF-2. The assay is described as above. Here is the method:
as §1, §2

Assay [14] deals with T7, recombinant human IGF-1. The assay is described as above. The protocol:
as §1, §2

In assay [15] the target is T2, recombinant human IGF-2. The description is as above. The protocol: as §1, §2
Assay [16] deals with T3, biotinylated IGF-1. Description: competition ELISA: antibody titrated against biotinylated IGF-1 binding to coated IGF-1R; antibody 40186; mass concentration.
Assay [17] has as its target T7, recombinant human IGF-1. The experiment in a line: SPR (Biacore), IGF coating method, bivalent antibody injected (avidity). Here is the method: (§3) Affinity constants are also determined for binding of the IGF antibodies to human IGF-1 and IGF-2 using a method where the IGF ligands are coated to the Biacore sensor chip and a range of antibody concentrations injected. The approximately 30-50-fold increase in the binding constants using this method compared with the initial antibody capture method is likely due to an avidity effect where both antibody binding domains interact with an IGF molecule.

Assay [18] has as its target T2, recombinant human IGF-2. The description is as above. Here is the method:
as §3

T5 sequence (P01346 25-91 limits assumed): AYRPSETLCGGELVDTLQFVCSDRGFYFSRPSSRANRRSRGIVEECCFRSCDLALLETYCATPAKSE

B1: antibody 40183 (antibody, human IgG1, lambda, V domains shown)
VH: QVELVESGGGLVQPGGSLRLSCAASGFTWSSFAMSWVRQAPGKGLEWVSYISYLGSYTGYADSVKGRFTISRDNSKNTLYLQMNSLRAEDTAVYYCARGTKFDYWGQGTLVTVSS
VL: DIVLTQPPSVSGAPGQRVTISCTGSSSNIGTYDVHWYQQLPGTAPKLLIYSNSKRPSGVPDRFSGSKSGTSASLAITGLQSEDEADYYCSITRVFGGGTKLTVLG
notes: Fully human IgG1 / Ig lambda
In the case of B1, the binding result with murine IGF-2 [1] is “binds”; in the assay with recombinant human IGF-2 [2], “binds”; with rat IGF-1 [4] it was “binds”; with rat IGF-2 [5], “binds”; in [7], “no binding (tested: 100 ng/ml)”; with murine IGF-1 [8], “binds”. Moreover, in the assay with biotinylated IGF-1 [3], the IC50 is about 5 ng/mL. For the same molecule, in the assay with biotinylated IGF-1 [6], the “IC50 (read off the curve)” value is about 3 ng/mL.

B2: antibody 40186 (antibody, human IgG1, lambda, V domains shown)
VH: QVELVESGGGLVQPGGSLRLSCAASGFTFSNYWMHWVRQAPGKGLEWVSGISGWSSWTYYADSVKGRFTISRDNSKNTLYLQMNSLRAEDTAVYYCARFGIDAYTKVYFDYWGQGTLVTVSS
VL: DIELTQPPSVSVAPGQTARISCSGDNIPLKYVSWYQQKPGQAPVLVIHDDNKRPSGIPERFSGSNSGNTATLTISGTQAEDEADYYCQSWASTGVVFGGGTKLTVLG
notes: Fully human IgG1 / Ig lambda from the HuCAL Gold library
Take B2: the Ka with recombinant human IGF-1 [9] stood at 1.22e+10 M⁻¹; with murine IGF-1 [10], 1.44e+08 M⁻¹; with rat IGF-1 [11], 3.67e+08 M⁻¹; with murine IGF-2 [12] it was 1.08e+08 M⁻¹; in the assay with rat IGF-2 [13], 1.67e+08 M⁻¹; with recombinant human IGF-1 [14], 2.16e+08 M⁻¹. The Ka in the assay with recombinant human IGF-2 [15] was found to be 2.86e+08 M⁻¹; in the assay with recombinant human IGF-2 [18] it was 1.45e+10 M⁻¹. Moreover, the Kd with murine IGF-1 [10] stood at 7.1 nM; in the assay with rat IGF-1 [11], 2.76 nM; with murine IGF-2 [12], 9.56 nM; in the assay with rat IGF-2 [13], 6.49 nM; with recombinant human IGF-1 [14], 4.66 nM; in the assay with recombinant human IGF-2 [15] it was 3.62 nM. Besides, the figures for the Kd in the assay with recombinant human IGF-1 [17] and in the assay with recombinant human IGF-2 [18] were 0.14 nM and 0.072 nM, respectively. Further, the koff with murine IGF-1 [10] turned out to be 0.00329 s⁻¹; with rat IGF-1 [11], 0.00301 s⁻¹; with murine IGF-2 [12], 0.00586 s⁻¹; in the assay with rat IGF-2 [13], 0.00351 s⁻¹; with recombinant human IGF-1 [14] it was 0.0027 s⁻¹; in the assay with recombinant human IGF-2 [15], 0.00362 s⁻¹. Besides, the koff with recombinant human IGF-1 [17] came to 0.00023 s⁻¹; with recombinant human IGF-2 [18] it was 0.000164 s⁻¹. Moreover, the kon with murine IGF-1 [10] came out at 466000 M⁻¹ s⁻¹; in the assay with rat IGF-1 [11], 1.1e+06 M⁻¹ s⁻¹; in the assay with murine IGF-2 [12], 632000 M⁻¹ s⁻¹; with rat IGF-2 [13], 602000 M⁻¹ s⁻¹; with recombinant human IGF-1 [14] it was 581000 M⁻¹ s⁻¹; with recombinant human IGF-2 [15], 1.03e+06 M⁻¹ s⁻¹. The kon with recombinant human IGF-1 [17] is 2.1e+06 M⁻¹ s⁻¹; in the assay with recombinant human IGF-2 [18], 2.26e+06 M⁻¹ s⁻¹. The IC50 with biotinylated IGF-1 [16] is about 5 ng/mL. The “IC50 (read off the curve)” value with biotinylated IGF-1 [6] was about 5 ng/mL. The binding result in [7] was “no binding (tested: 100 ng/ml)”.
